These results are taken from US20230094463A1, “ANTIBODIES THAT DISRUPT THE INTERACTION OF GAL3 AND INSULIN RECEPTOR OR INTEGRINS AND METHODS OF USE THEREOF” (TrueBinding, Inc., priority 2019, published 2023).

In experiment [1] the target is T1, Gal3 peptides (SEQ ID NOs: 3-26) (Homo sapiens, UniProt P17931).
T1 construct: a library of 24 amino acid peptides representing portions of Gal3; purchased LifeTein custom order
As to the kind of experiment: Gal3 peptide library binding ELISA (epitope mapping). How it is done: (§1) To identify the epitopes to which Gal3 antibodies with and without Gal3-INSR blocking activity bound, a library of 24 amino acid peptides representing portions of Gal3, depicted in FIG. 27, was produced and the ability of each peptide to bind Gal3 antibodies was evaluated by ELISA. At least 2 μg/ml of hGal3 peptide in 50 μl of PBS or 0.1 μg/ml of full-length human Gal3 protein (GenScript) and human Galectin-3 protein (Acro Biosystems, GA3-H5129) were diluted in PBS (Corning, 21-030-CM) to concentrations of at least 2 μg/ml or 0.1 μg/ml, respectively, and added to the wells of a 96-well ELISA plate (Thermo Fisher, 44-2404-21). After incubating the plate at 4° C. overnight, the plate was washed three times with PBST (PBS with 0.05% Tween 20 [VWR, 0777]). The plate was then blocked for an hour with 2% BSA (EMD Millipore, 126609) in PBST at room temperature with gentle rocking. Thereafter, the 2% BSA in PBST was discarded and human Galectin-3 hybridoma supernatants or antibodies were diluted in 2% BSA in PBST to concentrations of at least 0.1 μg/ml and added to the wells. The plate was incubated for an hour at room temperature with gentle rocking and then washed three times with PBST. Afterwards, Goat Anti-Mouse IgG-HRP (Jackson ImmunoResearch, 115-036-1461) or Goat Anti-Rat IgG HRP (Abcam, ab205720) diluted in 2% BSA in PBST (1:4000) were added to the wells. The plate was incubated for 30 minutes to 1 hour at room temperature with gentle rocking and then washed three times with PBST. TMB substrate (Thermo Scientific, 34029) was then added to each well. The reaction was stopped with 1M HCl (JT Baker, 5620-02) and read using a plate reader (Molecular Devices) at absorbance of 450 nm.
(§2) Human Gal3 peptides (LifeTein, custom order) and human Gal3 proteins (R&D Systems, 8259-GA; TrueBinding, QCB200349) were diluted in PBS (Corning, 21-030-CM) to concentrations of at least 100 μg/mL (peptides) or 1 μg/mL (proteins), and added to the wells of several 96-well ELISA plates (Thermo Fisher, 44-2404-21). After incubating the plates at 4° C. overnight, the plates were washed three times with PBST (PBS with 0.05% Tween 20 [VWR, 0777]). The plates were then blocked for an hour with 2% BSA (EMD Millipore, 126609) in PBST at room temperature with gentle rocking. Thereafter, the 2% BSA in PBST was discarded and Gal3-binding antibodies (reformatted hIgG4 [S228P]) were diluted in 2% BSA in PBST to concentrations of 5 μg/mL and added to the wells. The plates were incubated for an hour at room temperature with gentle rocking and then washed three times with PBST. Afterwards, Peroxidase AffiniPure F(ab′)2 Fragment Goat Anti-Human IgG (H+L) polyclonal antibody (Jackson ImmunoResearch, 109-036-003), was diluted in 2% BSA in PBST (1:4000) and added to the wells. The plates were incubated for 1 hour at room temperature with gentle rocking and then washed three times with PBST. TMB substrate (Thermo Scientific, 34029) was then added to each well. The reaction was stopped with 1M HCl (JT Baker, 5620-02) and read using a plate reader (Molecular Devices) at absorbance of 450 nm.
For orientation: ELISA stands for enzyme-linked immunosorbent assay.

The test system of experiment [2] is Gal3 peptides (SEQ ID NOs: 3-26). The description is as above. Details: species or system human. How it is done:
as §1, §2

In experiment [3] the target is T2, interaction of Gal3 and INSR (Homo sapiens, UniProt P17931).
T2 construct: 6-histidine tag (linker-spaced); purchased Acro Biosystems (Gal3); Sino Biological (INSR) GA3-H5129; 11086-H08H
T2 sequence (P17931 2-250 limits assumed): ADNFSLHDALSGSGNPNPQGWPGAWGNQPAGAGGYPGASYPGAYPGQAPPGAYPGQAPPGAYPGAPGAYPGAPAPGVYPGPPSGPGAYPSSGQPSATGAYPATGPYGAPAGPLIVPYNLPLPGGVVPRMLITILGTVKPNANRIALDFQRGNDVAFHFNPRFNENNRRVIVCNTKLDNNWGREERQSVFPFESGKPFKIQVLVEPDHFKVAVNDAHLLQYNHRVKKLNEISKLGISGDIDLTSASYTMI
Kind of experiment: ELISA of blocking of Gal3-INSR association by Gal3-binding antibodies. How it is done:
Positively scoring wells were evaluated for the ability to block association of Gal3 and INSR. To identify Gal3-targeted antibodies with the ability to block the interaction of Gal3 and INSR, purified Gal3 and INSR proteins were incubated in the presence of Gal3-immunization hybridoma supernatants described above, or without antibody, and protein interaction was evaluated by ELISA. Human Galectin-3 protein (Acro Biosystems, GA3-H5129) was diluted in PBS (Corning, 21-030-CM) to a concentration of 3 μg/ml and added to the wells of a 96-well ELISA plate (Thermo Fisher, 44-2404-21). After incubating the plate at 4° C. overnight, the plate was washed three times with PBST (PBS with 0.05% Tween 20 [VWR, 0777]). The plate was then blocked for an hour with 2% BSA (EMD Millipore, 126609) in PBST at room temperature with gentle rocking. Thereafter, the 2% BSA in PBST was discarded and antibody or inhibitor (3-fold dilutions beginning at 20 μg/ml, 60 μg/ml, or 180 μM) in 2% BSA in PBST was added to the wells. Afterwards, 6 μg/ml of human Insulin Receptor (Sino Biological, 11086-H08H) in 2% BSA in PBST was added to the antibody or inhibitor in the wells in a 1:1 ratio. The plate was incubated for an hour at room temperature with gentle rocking. Thereafter, the plate was washed three times with PBST, and 0.3 μg/ml of human INSR Biotinylated Antibody (R&D Systems, BAF1544) in 2% BSA in PBST was added to the wells. The plate was incubated for an hour with gentle rocking and then washed three times with PBST. Avidin-HRP (1:2000) was then added to the wells. The plate was incubated at room temperature for an hour with gentle rocking and then washed three times with PBST. TMB substrate (Thermo Scientific, 34029) was then added to each well. The reaction was stopped with 1M HCl (JT Baker, 5620-02) and read using a plate reader (Molecular Devices) at absorbance of 450 nm.

A further experiment has as its system NOD/ShiLtJ mice. The settings on record: 10 mg/kg twice a week.
A further experiment concerns the target T3, human Gal3 (Homo sapiens, UniProt P17931).
T3 construct: His; purchased AcroBio GA3-H5129
As to the kind of experiment: Antibody binning assays (competition for binding to Gal3). Conditions: binning per Examples 3 and 18. As for the experimental part:
To determine whether Gal3-binding antibodies with Gal3-INSR blocking activity bind to the same or overlapping regions of the Gal3 molecule, antibody binning assays were performed to assess the ability of antibodies to simultaneously bind Gal3. Amine-reactive probes were loaded onto a Gator biosensor (Probe Life, Palo Alto, Calif.), equilibrated in dH20 for 60 seconds, dipped into 100 μl EDC 0.2M/NHS 0.05M activation buffer for 30 seconds, then dipped into a solution of […] human Gal3-His in 10 mM NaOAc buffer, pH 5 until binding was saturated, and quenched in 1 M ethanolamine pH 8.5 for 300 seconds. Following Gal3-His loading, tips were dipped in 20 μg/mL saturating antibody, then successively dipped into 5 μg/mL competing antibody.
The epitope binning assay was done in a sandwich format on the high-throughput SPR-based Carterra LSA unit (CarterraBio, Salt Lake City, Utah). First, the purified antibodies were diluted to 10 μg/ml concentration in 10 mM NaOAc (pH 5.0) and then were covalently coupled via amine group to HC200M chip activated by EDC and S-NHS to immobilize antibodies to different positions of a 384-spot array. One hundred thirty-eight binning cycles were run on the array of immobilized antibodies. In each cycle, first, human Gal3 (AcroBio GA3-H5129) was injected over the entire array to bind to different antibodies (primary antibody), followed by one antibody (secondary antibody) selected among the panel of 150 anti-GAL3 antibodies tested. At the end of each cycle, the array was regenerated by 10 mM Glycine (pH 2.0) to remove bound antigen and secondary antibody from the array. The data analysis was done using the Epitope software by CarterraBio.

T3 sequence (P17931 whole entry): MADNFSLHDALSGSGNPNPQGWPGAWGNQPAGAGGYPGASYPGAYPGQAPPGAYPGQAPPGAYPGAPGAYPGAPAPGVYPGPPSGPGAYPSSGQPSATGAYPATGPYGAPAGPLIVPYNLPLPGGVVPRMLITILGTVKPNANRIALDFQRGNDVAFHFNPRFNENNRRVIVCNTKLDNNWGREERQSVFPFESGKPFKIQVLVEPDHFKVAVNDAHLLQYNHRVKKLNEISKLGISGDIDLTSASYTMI
Description for NOD/ShiLtJ mice: To assess the therapeutic potential of anti-GAL3 antibody in Type I diabetes, a mouse model of diabetes type I was used. Briefly, seven-weeks-old female NOD/ShiLtJ mice (Jackson lab (001976)) and control group animals NOR/LtJ (Jackson Lab (002050)) were housed in standard disposable cages with filter tops at room temperature with a 6:00-18:00 day-night cycle. Mice were allowed to rest for a week before initiating glucose monitoring. The antibody treatment was initiated when glucose levels reach 250-400 (mg/dL) for two consecutive days. To establish glucose levels, the blood samples were collected from tail vein of the experimental animals following housing in clean cages with water and no food for 4-6 hours. The collected samples were analyzed by HemoCue Glucose 201 Analyzer and cuvettes (Mercedes Scientific 110706). […] At the end stage, the plasma samples were collected from symptomatic animals. C-peptide levels were determined by Alpco Mouse C-peptide ELISA kit (Alpco, 80-CPTMS-E01).

B1: F846C.1F5: anti-Gal3 antibody (antibody, V domains shown)
VH: QIQLVQSGPELKKPGETVKISCKASGYTFTNYGMNWVKQAPGKGLKWMGWINTYTGEPSYADDFKGRFAFSLETSASTAYLQINNLKNEDMATYFCARWGGYDGDYYAMDYWGQGTSVTVSS
VL: NIMMTQSPSSLAVSAGEKVTMSCKSSQSVLYSSNQKNYLAWYQQKPGQSPKLLIYWASTRESGVPDRFTGSGSGTDFTLTISSVQPEDLAVYYCHQYLSSLTFGAGTKLELK
As to B1, the “binding to Gal3 Peptide 6” value in experiment [1] (Peptide 6 (SEQ ID NO: 8), amino acids 51-70 of Gal3) is “bind and bound”. Besides, in experiment [2] (Peptide 17 (SEQ ID NO: 19)), the “binding to Gal3 Peptide 17” value is given as “bind”.

B2: 24D12.2H9: anti-Gal3 monoclonal antibody (antibody, V domains shown)
VH: QVQLKQSGPGLVQPSQSLSITCTVSGFSLTSYGVHWVRQAPGKGLEWLGVIWSGGSTDYNAAFMSRLSISKDNSKSQVFFKMNSLQADDTAIYYCAKSPDGYDVAWFGYWGQGTLVTVSA
VL: DIVMTQSHKFMSTSVGDRVSITCKASQDVRTAVAWYQQKPGQSPKLLIYWASTRHTGVPDRFTGSGSGTDFTLTLSNVQSEDLADYFCQQYSSYPWTFGGGTKLEIK
B2: the “Gal3-INSR blocking activity (in words)” value in experiment [3] is on record as “poorly block”.

B3: F846TC.14A2: anti-Gal3 antibody (antibody, V domains shown)
VH: QIQLVQSGPELKKPGETVKISCKASGYTFTNYGMNWVKQAPGKGLKWMGWINTYTGEPTYAGDLKGRFAFSLETSASTAYLQINNLKNEDTATYFCVRYTMDYWGQGTSVTVSS
VL: QAVVTQESALTTSPGETVTLTCRSSTGAVTTSNYANWVQEKPDHLFTGLIGGINNRVPGVPARFSGSLIGDKAALTITGAQTEDEAIYFCALWYSNHWVFGGGTKLTVL
As to B3, in experiment [1] (Peptide 1 (SEQ ID NO: 3), amino acids 1-20 of Gal3), the “binding to Gal3 Peptide 1” value was “bind and bound”. Besides, the “binding to Gal3 Peptide 7” value in experiment [1] (Peptide 7 (SEQ ID NO: 9), amino acids 61-80 of Gal3) is “bind and bound”. In experiment [2] (Peptide 8 (SEQ ID NO: 10)), the “binding to Gal3 Peptide 8” value is on record as “bind”.

B4: mTB001: anti-GAL3 antibody used in mouse models (antibody)
heavy: QIQLVQSGPELKKPGETVKISCKASGYTFTNYGMNWVKQAPGKGLKWMGWINTNTGEPTYVEEFKGRFAFSLETSASTAYLQINNLKNEDTATYFCAPYDNFFAYWGQGTLVTVSAAKTTPPSVYPLAPVCGDTTGSSVTLGCLVKGYFPEPVTLTWNSGSLSSGVHTFPAVLQSDLYTLSSSVTVTSSTWPSQSITCNVAHPASSTKVDKKIEPRGPTIKPCPPCKCPAPNAAGGPSVFIFPPKIKDVLMISLSPIVTCVVVDVSEDDPDVQISWFVNNVEVHTAQTQTHREDYNSTLRVVSALPIQHQDWMSGKEFKCKVNNKDLGAPIERTISKPKGSVRAPQVYVLPPPEEEMTKKQVTLTCMVTDFMPEDIYVEWTNNGKTELNYKNTEPVLDSDGSYFMYSKLRVEKKNWVERNSYSCSVVHEGLHNHHTTKSFSRTPGK
light: DIVITQDELSNPVTSGESVSISCRSSKSLLYKDGKTYLNWFLQRPGQSPQLLIYLMSTHASGVSDRFSGSGSGTDFTLEISRVKAEDVGVYYCQQLVDYPLTFGAGTKLELKRADVAPTVSIFPPSSEQLTSGGASVVCFLNNFYPKDINVKWKIDGSERQNGVLNSWTDQDSKDSTYSMSSTLTLTKDEYERHNSYTCEATHKTSTSPIVKSFNRNEC
With B4, in the experiment on NOD/ShiLtJ mice, the “levels of blood glucose” value is recorded as “stabilizing the levels of blood glucose” and the survival result is listed as “prolonged survival”. Also, in the experiment on NOD/ShiLtJ mice (plasma ELISA), the C-peptide levels result was “restoring C-peptide levels”.

B5: 13G4.2F8: anti-Gal3 monoclonal antibody (antibody, V domains shown)
VH: QVQLQQPGAELVKPGASVKLSCKASGYTFTSYWMHWVKQRPGQGLEWIGMIHPNSGSTDYNEKFKNKATLNVDKSSSTAYIQLSSLTSEDSAVYYCTRWGIYYYARDYWGQGTTLTVSS
VL: DIVMTQSQKFMSTSVGERVSITCKASQNVGTNVAWYQQKAGQSLELLIYGASNRHTGVPDRFTGSGSGTDFTLTITNVQSEDMTNYFCEQYSNFPLTFGAGTKLELK
On to B5, for which, in experiment [3], the “Gal3-INSR blocking activity (in words)” value was “poorly block”.

B6: 12G5.D7: anti-Gal3 monoclonal antibody (antibody, V domains shown)
VH: QVQLKQSGAELVRPGASVKLSCKASGYTFTDYYINWVKQRPGQGLEWIARIYPGTGNTDYNEKFKGRATLTAEKSSSTAYMQLSSLTSEDSAVYFCARFAYYYGSGGYFDYWGHGTTLTVSS
VL: DILMTQSPSSMSVSLGDTVSITCHASQGINSNMGWLQQKPGKSFKGLIYHATNLEDGVPSRFSGSGSGADYSLTISSLESEDFADYYCVQYAQFPPTFGSGTKLEIK
For B6, the “Gal3-INSR blocking activity (in words)” value in experiment [3] is given as “poorly block”. In the experiment with human Gal3, the “epitope bin (competitive binding to Gal3)” value is “bin 10”.
